Assay results taken from US20150374794A1 (Novo Nordisk, published 2015).
Numbered stars: 1 amine (or outer) side, 2 acyl side, 3 side chain; on linkers, the order of the positions; unused ones are H or OH. Square brackets hold non-standard residues; d marks the D form. Side chains are listed from the residue outwards. Ends that are not written are not given here. * marks the point of attachment. C18 diacid = O=C(O)CCCCCCCCCCCCCCCCC(=O)*; γGlu = O=C(O)[C@H](CCC(=O)[*:2])N[*:1]; AEEA = NCCOCCOCC(=O)O; Aib = CC(C)(N)C(=O)O

B1: N^ε29-[(4S)-4-carboxy-4-[[(4S)-4-carboxy-4-[[2-[2-[2-[[2-[2-[2-[[(4S)-4-carboxy-4-(17-carboxyheptadecanoylamino)butanoyl]amino]ethoxy]ethoxy]acetyl]amino]ethoxy … (peptide)
peptide: H[Aib]QGTFTSDLSKYLDKRRAEDFVQWLLSK([γGlu-γGlu-AEEA-AEEA-γGlu-C18 diacid])-NH2
modifications: N-terminus assumed
SMILES: CC(C)C[C@H](NC(=O)[C@H](CC(C)C)NC(=O)[C@H](Cc1c[nH]c2ccccc12)NC(=O)[C@H](CCC(N)=O)NC(=O)[C@@H](NC(=O)[C@H](Cc1ccccc1)NC(=O)[C@H](CC(=O)O)NC(=O)[C@H](CCC(=O)O)NC(=O)[C@H](C)NC(=O)[C@H](CCCNC(=N)N)NC(=O)[C@H](CCCNC(=N)N)NC(=O)[C@H](CCCCN)NC(=O)[C@H](CC(=O)O)NC(=O)[C@H](CC(C)C)NC(=O)[C@H](Cc1ccc(O)cc1)NC(=O)[C@H](CCCCN)NC(=O)[C@H](CO)NC(=O)[C@H](CC(C)C)NC(=O)[C@H](CC(=O)O)NC(=O)[C@H](CO)NC(=O)[C@@H](NC(=O)[C@H](Cc1ccccc1)NC(=O)[C@@H](NC(=O)CNC(=O)[C@H](CCC(N)=O)NC(=O)C(C)(C)NC(=O)[C@@H](N)Cc1c[nH]cn1)[C@@H](C)O)[C@@H](C)O)C(C)C)C(=O)N[C@@H](CO)C(=O)N[C@@H](CCCCNC(=O)CC[C@H](NC(=O)CC[C@H](NC(=O)COCCOCCNC(=O)COCCOCCNC(=O)CC[C@H](NC(=O)CCCCCCCCCCCCCCCCC(=O)O)C(=O)O)C(=O)O)C(=O)O)C(N)=O
B2: N^ε29-[(4S)-4-carboxy-4-[[(4S)-4-carboxy-4-[[2-[2-[2-[[2-[2-[2-[[(4S)-4-carboxy-4-(17-carboxyheptadecanoylamino)butanoyl]amino]ethoxy]ethoxy]acetyl]amino]ethoxy … (peptide)
peptide: H[Aib]QGTFTSDLSKYLDTRRAKDFVQWLLSK([γGlu-γGlu-AEEA-AEEA-γGlu-C18 diacid])-NH2
modifications: N-terminus assumed
SMILES: CC(C)C[C@H](NC(=O)[C@H](CC(C)C)NC(=O)[C@H](Cc1c[nH]c2ccccc12)NC(=O)[C@H](CCC(N)=O)NC(=O)[C@@H](NC(=O)[C@H](Cc1ccccc1)NC(=O)[C@H](CC(=O)O)NC(=O)[C@H](CCCCN)NC(=O)[C@H](C)NC(=O)[C@H](CCCNC(=N)N)NC(=O)[C@H](CCCNC(=N)N)NC(=O)[C@@H](NC(=O)[C@H](CC(=O)O)NC(=O)[C@H](CC(C)C)NC(=O)[C@H](Cc1ccc(O)cc1)NC(=O)[C@H](CCCCN)NC(=O)[C@H](CO)NC(=O)[C@H](CC(C)C)NC(=O)[C@H](CC(=O)O)NC(=O)[C@H](CO)NC(=O)[C@@H](NC(=O)[C@H](Cc1ccccc1)NC(=O)[C@@H](NC(=O)CNC(=O)[C@H](CCC(N)=O)NC(=O)C(C)(C)NC(=O)[C@@H](N)Cc1c[nH]cn1)[C@@H](C)O)[C@@H](C)O)[C@@H](C)O)C(C)C)C(=O)N[C@@H](CO)C(=O)N[C@@H](CCCCNC(=O)CC[C@H](NC(=O)CC[C@H](NC(=O)COCCOCCNC(=O)COCCOCCNC(=O)CC[C@H](NC(=O)CCCCCCCCCCCCCCCCC(=O)O)C(=O)O)C(=O)O)C(=O)O)C(N)=O
B3: N^ε24-[(4S)-4-carboxy-4-[[(4S)-4-carboxy-4-[[2-[2-[2-[[2-[2-[2-[[(4S)-4-carboxy-4-(17-carboxyheptadecanoylamino)butanoyl]amino]ethoxy]ethoxy]acetyl]amino]ethoxy … (peptide)
peptide: H[Aib]QGTFTSDLSKYLDSRRARDFVK([γGlu-γGlu-AEEA-AEEA-γGlu-C18 diacid])WLLST-NH2
modifications: N-terminus assumed
SMILES: CC(C)C[C@H](NC(=O)[C@H](Cc1ccc(O)cc1)NC(=O)[C@H](CCCCN)NC(=O)[C@H](CO)NC(=O)[C@H](CC(C)C)NC(=O)[C@H](CC(=O)O)NC(=O)[C@H](CO)NC(=O)[C@@H](NC(=O)[C@H](Cc1ccccc1)NC(=O)[C@@H](NC(=O)CNC(=O)[C@H](CCC(N)=O)NC(=O)C(C)(C)NC(=O)[C@@H](N)Cc1c[nH]cn1)[C@@H](C)O)[C@@H](C)O)C(=O)N[C@@H](CC(=O)O)C(=O)N[C@@H](CO)C(=O)N[C@@H](CCCNC(=N)N)C(=O)N[C@@H](CCCNC(=N)N)C(=O)N[C@@H](C)C(=O)N[C@@H](CCCNC(=N)N)C(=O)N[C@@H](CC(=O)O)C(=O)N[C@@H](Cc1ccccc1)C(=O)N[C@H](C(=O)N[C@@H](CCCCNC(=O)CC[C@H](NC(=O)CC[C@H](NC(=O)COCCOCCNC(=O)COCCOCCNC(=O)CC[C@H](NC(=O)CCCCCCCCCCCCCCCCC(=O)O)C(=O)O)C(=O)O)C(=O)O)C(=O)N[C@@H](Cc1c[nH]c2ccccc12)C(=O)N[C@@H](CC(C)C)C(=O)N[C@@H](CC(C)C)C(=O)N[C@@H](CO)C(=O)N[C@H](C(N)=O)[C@@H](C)O)C(C)C
B4: N^ε29-[(4S)-4-carboxy-4-[[(4S)-4-carboxy-4-[[2-[2-[2-[[2-[2-[2-[[(4S)-4-carboxy-4-(17-carboxyheptadecanoylamino)butanoyl]amino]ethoxy]ethoxy]acetyl]amino]ethoxy … (peptide)
peptide: H[Aib]QGTFTSDLSKYLDERRAKDFVQWLLSK([γGlu-γGlu-AEEA-AEEA-γGlu-C18 diacid])-NH2
modifications: N-terminus assumed
SMILES: CC(C)C[C@H](NC(=O)[C@H](CC(C)C)NC(=O)[C@H](Cc1c[nH]c2ccccc12)NC(=O)[C@H](CCC(N)=O)NC(=O)[C@@H](NC(=O)[C@H](Cc1ccccc1)NC(=O)[C@H](CC(=O)O)NC(=O)[C@H](CCCCN)NC(=O)[C@H](C)NC(=O)[C@H](CCCNC(=N)N)NC(=O)[C@H](CCCNC(=N)N)NC(=O)[C@H](CCC(=O)O)NC(=O)[C@H](CC(=O)O)NC(=O)[C@H](CC(C)C)NC(=O)[C@H](Cc1ccc(O)cc1)NC(=O)[C@H](CCCCN)NC(=O)[C@H](CO)NC(=O)[C@H](CC(C)C)NC(=O)[C@H](CC(=O)O)NC(=O)[C@H](CO)NC(=O)[C@@H](NC(=O)[C@H](Cc1ccccc1)NC(=O)[C@@H](NC(=O)CNC(=O)[C@H](CCC(N)=O)NC(=O)C(C)(C)NC(=O)[C@@H](N)Cc1c[nH]cn1)[C@@H](C)O)[C@@H](C)O)C(C)C)C(=O)N[C@@H](CO)C(=O)N[C@@H](CCCCNC(=O)CC[C@H](NC(=O)CC[C@H](NC(=O)COCCOCCNC(=O)COCCOCCNC(=O)CC[C@H](NC(=O)CCCCCCCCCCCCCCCCC(=O)O)C(=O)O)C(=O)O)C(=O)O)C(N)=O
B5: N^ε29-[(4S)-4-carboxy-4-[[(4S)-4-carboxy-4-[[2-[2-[2-[[2-[2-[2-[[(4S)-4-carboxy-4-(17-carboxyheptadecanoylamino)butanoyl]amino]ethoxy]ethoxy]acetyl]amino]ethoxy … (peptide)
peptide: H[Aib]QGTFTSDLSKYLDTRRAQDFVRWLLSK([γGlu-γGlu-AEEA-AEEA-γGlu-C18 diacid])-NH2
modifications: N-terminus assumed
SMILES: CC(C)C[C@H](NC(=O)[C@H](CC(C)C)NC(=O)[C@H](Cc1c[nH]c2ccccc12)NC(=O)[C@H](CCCNC(=N)N)NC(=O)[C@@H](NC(=O)[C@H](Cc1ccccc1)NC(=O)[C@H](CC(=O)O)NC(=O)[C@H](CCC(N)=O)NC(=O)[C@H](C)NC(=O)[C@H](CCCNC(=N)N)NC(=O)[C@H](CCCNC(=N)N)NC(=O)[C@@H](NC(=O)[C@H](CC(=O)O)NC(=O)[C@H](CC(C)C)NC(=O)[C@H](Cc1ccc(O)cc1)NC(=O)[C@H](CCCCN)NC(=O)[C@H](CO)NC(=O)[C@H](CC(C)C)NC(=O)[C@H](CC(=O)O)NC(=O)[C@H](CO)NC(=O)[C@@H](NC(=O)[C@H](Cc1ccccc1)NC(=O)[C@@H](NC(=O)CNC(=O)[C@H](CCC(N)=O)NC(=O)C(C)(C)NC(=O)[C@@H](N)Cc1c[nH]cn1)[C@@H](C)O)[C@@H](C)O)[C@@H](C)O)C(C)C)C(=O)N[C@@H](CO)C(=O)N[C@@H](CCCCNC(=O)CC[C@H](NC(=O)CC[C@H](NC(=O)COCCOCCNC(=O)COCCOCCNC(=O)CC[C@H](NC(=O)CCCCCCCCCCCCCCCCC(=O)O)C(=O)O)C(=O)O)C(=O)O)C(N)=O
B6: N^ε28-[(4S)-4-carboxy-4-[[(4S)-4-carboxy-4-[[2-[2-[2-[[2-[2-[2-[[(4S)-4-carboxy-4-(17-carboxyheptadecanoylamino)butanoyl]amino]ethoxy]ethoxy]acetyl]amino]ethoxy … (peptide)
peptide: H[Aib]QGTFTSDLSKYLDSRRARDFVQWLLK([γGlu-γGlu-AEEA-AEEA-γGlu-C18 diacid])T-NH2
modifications: N-terminus assumed
SMILES: CC(C)C[C@H](NC(=O)[C@H](Cc1ccc(O)cc1)NC(=O)[C@H](CCCCN)NC(=O)[C@H](CO)NC(=O)[C@H](CC(C)C)NC(=O)[C@H](CC(=O)O)NC(=O)[C@H](CO)NC(=O)[C@@H](NC(=O)[C@H](Cc1ccccc1)NC(=O)[C@@H](NC(=O)CNC(=O)[C@H](CCC(N)=O)NC(=O)C(C)(C)NC(=O)[C@@H](N)Cc1c[nH]cn1)[C@@H](C)O)[C@@H](C)O)C(=O)N[C@@H](CC(=O)O)C(=O)N[C@@H](CO)C(=O)N[C@@H](CCCNC(=N)N)C(=O)N[C@@H](CCCNC(=N)N)C(=O)N[C@@H](C)C(=O)N[C@@H](CCCNC(=N)N)C(=O)N[C@@H](CC(=O)O)C(=O)N[C@@H](Cc1ccccc1)C(=O)N[C@H](C(=O)N[C@@H](CCC(N)=O)C(=O)N[C@@H](Cc1c[nH]c2ccccc12)C(=O)N[C@@H](CC(C)C)C(=O)N[C@@H](CC(C)C)C(=O)N[C@@H](CCCCNC(=O)CC[C@H](NC(=O)CC[C@H](NC(=O)COCCOCCNC(=O)COCCOCCNC(=O)CC[C@H](NC(=O)CCCCCCCCCCCCCCCCC(=O)O)C(=O)O)C(=O)O)C(=O)O)C(=O)N[C@H](C(N)=O)[C@@H](C)O)C(C)C
B7: N^ε21-(4S)-4-carboxy-4-[[(4S)-4-carboxy-4-[[2-[2-[2-[[2-[2-[2-[[(4S)-4-carboxy-4-(17-carboxyheptadecanoylamino)butanoyl]amino]ethoxy]ethoxy]acetyl]amino]ethoxy] … (peptide)
peptide: H[Aib]QGTFTSDLSKYLDSRRARK([γGlu-γGlu-AEEA-AEEA-γGlu-C18 diacid])FVQWLLST-NH2
modifications: N-terminus assumed
SMILES: CC(C)C[C@H](NC(=O)[C@H](Cc1ccc(O)cc1)NC(=O)[C@H](CCCCN)NC(=O)[C@H](CO)NC(=O)[C@H](CC(C)C)NC(=O)[C@H](CC(=O)O)NC(=O)[C@H](CO)NC(=O)[C@@H](NC(=O)[C@H](Cc1ccccc1)NC(=O)[C@@H](NC(=O)CNC(=O)[C@H](CCC(N)=O)NC(=O)C(C)(C)NC(=O)[C@@H](N)Cc1c[nH]cn1)[C@@H](C)O)[C@@H](C)O)C(=O)N[C@@H](CC(=O)O)C(=O)N[C@@H](CO)C(=O)N[C@@H](CCCNC(=N)N)C(=O)N[C@@H](CCCNC(=N)N)C(=O)N[C@@H](C)C(=O)N[C@@H](CCCNC(=N)N)C(=O)N[C@@H](CCCCNC(=O)CC[C@H](NC(=O)CC[C@H](NC(=O)COCCOCCNC(=O)COCCOCCNC(=O)CC[C@H](NC(=O)CCCCCCCCCCCCCCCCC(=O)O)C(=O)O)C(=O)O)C(=O)O)C(=O)N[C@@H](Cc1ccccc1)C(=O)N[C@H](C(=O)N[C@@H](CCC(N)=O)C(=O)N[C@@H](Cc1c[nH]c2ccccc12)C(=O)N[C@@H](CC(C)C)C(=O)N[C@@H](CC(C)C)C(=O)N[C@@H](CO)C(=O)N[C@H](C(N)=O)[C@@H](C)O)C(C)C

Target: human GLP-1 receptor (human, UniProt P43220 24-463)
Test: cell-based or functional assay

Binder	EC50 GLP-1R, CRE luciferase reporter gene assay in BHK cells
B1	0.028 nM
B2	0.015 nM
B3	0.006 nM
B4	0.006 nM
B5	0.02 nM
B6	0.004 nM
B7	0.044 nM

Target: human glucagon receptor (human, UniProt P47871 26-477)
Test: cell-based or functional assay

Sequence of human glucagon receptor (P47871 26-477): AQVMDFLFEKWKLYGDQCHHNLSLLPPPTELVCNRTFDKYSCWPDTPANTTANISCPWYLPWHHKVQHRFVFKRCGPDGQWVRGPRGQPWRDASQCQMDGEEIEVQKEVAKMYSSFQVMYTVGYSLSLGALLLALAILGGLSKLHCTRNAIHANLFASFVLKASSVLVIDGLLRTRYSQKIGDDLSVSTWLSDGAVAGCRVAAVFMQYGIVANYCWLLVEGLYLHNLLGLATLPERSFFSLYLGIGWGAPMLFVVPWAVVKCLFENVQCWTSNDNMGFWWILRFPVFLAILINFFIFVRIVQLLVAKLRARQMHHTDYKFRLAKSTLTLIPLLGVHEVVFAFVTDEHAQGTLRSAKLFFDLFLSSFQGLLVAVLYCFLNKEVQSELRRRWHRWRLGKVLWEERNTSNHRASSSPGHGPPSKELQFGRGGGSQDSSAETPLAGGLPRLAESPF

Binder	EC50 GlucR, CRE luciferase reporter gene assay in BHK cells
B1	0.599 nM
B2	0.672 nM
B3	0.06 nM
B4	1.43 nM
B5	0.19 nM
B6	0.016 nM
B7	0.097 nM
